Experimental data from doi:10.1101/2025.11.18.688960.

Key:
Assay in all cases: fluorescence anisotropy
[1] = system: Protamine 1 AA (P1 S43AT45A) (mouse)
[2] = system: Protamine 1 EE (P1 S43ET45E) (mouse)
[3] = system: Protamine 1 WT (P1) (mouse)

99 bp fluorescent dsDNA
Kd [1]: 610 nM | Kd [2]: 1100 nM | Kd [3]: 430 nM
